Test results published in publication PMC11880322.
Residue numbers refer to the chain shown, from its start.

B1: ss-W1 (ssDNA)
DNA: AAAGATTCGGGGTCATCCGAGTCGAGAGAGCGCCTG
B2: ss-W10 (ssDNA)
DNA: TCTGATTCGGGGTCATCCGAGTCGAGAAAACGCCTG
B3: ss-W11 (ssDNA)
DNA: TCTGATTCGGGGTCATCCGAGTCGAGAGAGAAACTG
B4: ss-W12 (ssDNA)
DNA: TCTGATTCGGGGTCATCCGAGTCGAGAGAGCGCAAA
B5: ss-W2 (ssDNA)
DNA: B2 DNA with G4A, T6A, A28G, A30G
B6: ss-W9 (ssDNA)
DNA: B2 DNA with G26A, A28G, A30G

These binders were tested against ∆14-PrfaH (IncX3 plasmid pHNYX644 …, UniProt A0A0C5EQ24 1-155) (assay: EMSA).
B1: binds. B2: binds. B3: binds. B4: binds. B5: binds. B6: binds.
